B1: CPEB3 Ribozyme (parent)
chain: GGGGGCCACAGCAGAAGCGUUCACGUCGCGGCCCCUGUCAGAUUCUGGUGAAUCUGCGAAUUCUGCUGU

Variants of: B1
Assay: self-cleavage, relative activity (ratio to wild type); higher = more cleavage; co-transcriptional
Variant GGGGGCCACAGCACAAUCGUUCACGUCGCGGCCCCUGUCAGAUUCUGGUGAAUCUGCGAAUUCUGCUGU has a self-cleavage of 0.138.
In the case of GGGGGCCACAGCAAAAGCGUUCACGUGGCGGCCCCUGUCAGAUUCUGGUGAAUCUGCGAAUUCUGCUGU, the self-cleavage is reported as 0.116.
GGGGGCCACAGCAAAAGCGUUCACGUCGCGGUCCCUGUCAGAUUCUGGUGAAUCUGCGAAUUCUGCUGU showed a self-cleavage of 0.802.
Work on GGGGGCCACAGCAAAAGCGUUCACGUCGCGGCCUCUGUCAGAUUCUGGUGAAUCUGCGAAUUCUGCUGU yielded a self-cleavage of 0.751.
Variant GGGGGCCACAGCAAAAGCGUUCACGUCGCGGCCCCUGUCAUAUUCUGGUGAAUCUGCGAAUUCUGCUGU has a self-cleavage of 0.264.
GGGGGCCACAGCAAAAGCGUUCACGUCGCGGCCCCUGUCACAUUCUGGUGAAUCUGCGAAUUCUGCUGU gave a self-cleavage of 0.179.
Variant GGGGGCCACAGCACAAGCGUUCACGUCGCGGCCCCUGUCAGAUUCUGGUGAAUCUGCGACUUCUGCUGU has a self-cleavage of 0.21.
With GGGGGCCACAGCACAAGCGUUCACGUCGCGGCCCCUGUCAGAUUCUGGUGAAUCUGCGAUUUCUGCUGU the self-cleavage was 0.249.
GGGGGCCACAGCAAAAGCGUUCACGGCGCGGCCCCUGUCAGAUUCUGGUGAAUCUGCGAAUUCUGCUGU gave a self-cleavage of 0.401.
For GGGGGCCACAGCAAAAGCGUUCACGCCGCGGCCCCUGUCAGAUUCUGGUGAAUCUGCGAAUUCUGCUGU, the self-cleavage was 0.432.
GGGGGCCACAGCAAAAGCGUUCACGUCGCGGCCCCUGUCAGAUUCUGGUGAAUCUGUGAAUUCUGCUGU gave a self-cleavage of 0.229.
Variant GGGGGCCACAGCACAAGCCUUCACGUCGCGGCCCCUGUCAGAUUCUGGUGAAUCUGCGAAUUCUGCUGU has a self-cleavage of 0.126.
In the case of GGGGGCCACAGCACAAGCGUUCACGUCGCGGCCCCUGUCAGAUUCUGGUGAUUCUGCGAAUUCUGCUGU, the self-cleavage is reported as 0.562.
Variant GGGGGCCACAGCACAAGCGUUCACGUCGCGGCCCCUGUCAGAUUCUGGUGACUCUGCGAAUUCUGCUGU has a self-cleavage of 0.459.
For GGGGGCCACAGCAAAAGCGUUCACGUCGCGUCCCCUGUCAGAUUCUGGUGAAUCUGCGAAUUCUGCUGU, the self-cleavage was 0.207.
With GGGGGCCACAGCAAAAGCGUUCACGUCGCGGCCCCUGUCAGAUUCUAGUGAAUCUGCGAAUUCUGCUGU the self-cleavage was 0.826.
With GGGGGCCACAGCAAAAGCGUUCACGUCGCUGCCCCUGUCAGAUUCUGGUGAAUCUGCGAAUUCUGCUGU the self-cleavage was 0.21.
For GGGGGCCACAGCAAAAGCGUUCACGUCGCCGCCCCUGUCAGAUUCUGGUGAAUCUGCGAAUUCUGCUGU, the self-cleavage was 0.281.
GGGGGCCACAGCAAAAGCGUUCACGUCGCGGCCCCUGUCAGAUUCUGGUGAAUCUGCGAAUUCAGCUGU showed a self-cleavage of 0.444.
GGGGGCCACAGCAAAAGCGCUCACGUCGCGGCCCCUGUCAGAUUCUGGUGAAUCUGCGAAUUCUGCUGU showed a self-cleavage of 0.181.
In the case of GGGGGCCACAGCACAAGCGUUCACGUCGCGGCCCCUGUCAGAUUCUGGUGAAUCUGCGGAUUCUGCUGU, the self-cleavage is reported as 0.62.
GGGGGCCACAGCAAAAGCUUUCACGUCGCGGCCCCUGUCAGAUUCUGGUGAAUCUGCGAAUUCUGCUGU gave a self-cleavage of 0.091.
In the case of GGGGGCCACAGCAAAAGCGUUCACGUCGCGGCCCCUGUCAGAUUCUGGGGAAUCUGCGAAUUCUGCUGU, the self-cleavage is reported as 0.842.
With GGGGGCCACAGCAAAAGCGUUCACGUCGCGGCCCCUGUCAGAUUCUGGAGAAUCUGCGAAUUCUGCUGU the self-cleavage was 0.742.
GGGGGCCACAGCACAAGCGUUCACGUCGCGGCCCCUGUCUGAUUCUGGUGAAUCUGCGAAUUCUGCUGU showed a self-cleavage of 0.199.
Work on GGGGGCCACAGCACAAGCGUUCACGUCGCGGCCCAUGUCAGAUUCUGGUGAAUCUGCGAAUUCUGCUGU yielded a self-cleavage of 0.173.
For GGGGGCCACAGCAAAAACGUUCACGUCGCGGCCCCUGUCAGAUUCUGGUGAAUCUGCGAAUUCUGCUGU, the self-cleavage was 0.134.
GGGGGCCACAGCAAAACCGUUCACGUCGCGGCCCCUGUCAGAUUCUGGUGAAUCUGCGAAUUCUGCUGU showed a self-cleavage of 0.175.
Variant GGGGGCCACAGCAAAAGCGUCCACGUCGCGGCCCCUGUCAGAUUCUGGUGAAUCUGCGAAUUCUGCUGU has a self-cleavage of 0.413.
Variant GGGGGCCACAGCAAAAGCGUACACGUCGCGGCCCCUGUCAGAUUCUGGUGAAUCUGCGAAUUCUGCUGU has a self-cleavage of 0.646.
In the case of GGGGGCCACAGCAAAAGCGUGCACGUCGCGGCCCCUGUCAGAUUCUGGUGAAUCUGCGAAUUCUGCUGU, the self-cleavage is reported as 0.121.
GGGGGCCACAGCAAAAGCGUUCACGUCGCGGCCCCGGUCAGAUUCUGGUGAAUCUGCGAAUUCUGCUGU gave a self-cleavage of 0.134.
Variant GGGGGCCACAGCAAAAGCGUUCACGUCGCGGCCCCUGUCAGAUUCUGGUGAAUCAGCGAAUUCUGCUGU has a self-cleavage of 0.289.
GGGGGCCACAGCACAAGAGUUCACGUCGCGGCCCCUGUCAGAUUCUGGUGAAUCUGCGAAUUCUGCUGU showed a self-cleavage of 0.149.
Variant GGGGGCCACAGCACAAGUGUUCACGUCGCGGCCCCUGUCAGAUUCUGGUGAAUCUGCGAAUUCUGCUGU has a self-cleavage of 0.155.
GGGGGCCACAGCAAAAGCGUUCACGUCGCGGCCCAUGUCAGAUUCUGGUGAAUCUGCGAAUUCUGCUGU gave a self-cleavage of 0.202.
GGGGGCCACAGCAAAAGCGUUCACGUCGCGGCCCGUGUCAGAUUCUGGUGAAUCUGCGAAUUCUGCUGU showed a self-cleavage of 0.236.
Variant GGGGGCCACAGCAAAAGCGUUCACGUCACGGCCCCUGUCAGAUUCUGGUGAAUCUGCGAAUUCUGCUGU has a self-cleavage of 0.147.
For GGGGGCCACAGCAAAAGCGUUCACGUCUCGGCCCCUGUCAGAUUCUGGUGAAUCUGCGAAUUCUGCUGU, the self-cleavage was 0.112.
